± gives the uncertainty stated by the source.
Assay: self-splicing fitness, log relative to wild type (ln ratio); higher = more splicing; Tetrahymena group I intron in knt gene, E. coli kanamycin selection, DiMSum; sequences stand for … in CUCUCU…GGAGGGAAAAGUUAUCAGGCAUGCACCUGGUAGCUAGUCUUUAAACCAAUAGAUUGCAUCGGUUUAAAAGGCAAGACCGUCAAAUUGCGGGAAAGGGGUCAACAGCCGUUCAGUACCAAGUCUCAGGGGAAACUUUGAGAUGGCCUUGCAAAGGGUAUGGUAAUAAGCUGACGGACAUGGUCCUAACCACGCAGCCAAGUCCUAAGUCAACAGAUCUUCUGUUGAUAUGGAUGCAGUUCACAGACUAAAUGUCGGUCGGGGAAGAUGUAUUCUUCUCAUAAGAUAUAGUCGGACCUCUCCUUAAUGGGAGCUAGCGGAUGAAGUGAUGCAACACUGGAGCCGCUGGGAACUAAUUUGUAUGCGAAAGUAUAUUGAUUAGUUUUGGAGUACUCGUGGUCG
Method in brief: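 Fitness was computed with DiMSum as the error-weighted combination of replicate fold changes, kanamycin versus none, each normalised to wild type. The library randomised all eight intron nucleotides of the P1ex region, with the intron placed in the knt kanamycin-resistance gene on pET-22b(+) in E. coli BL21(DE3). Six replicate transformations were grown overnight at 37°C or 30°C on LB agar with or without 25 μg/mL kanamycin, plus 100 μg/mL carbenicillin, 50 μM IPTG and 0.2% rhamnose. Pooled colonies were amplicon-sequenced on an Illumina HiSeq 2500.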

Sequence	self-splicing fitness (ln) (30 °C)	self-splicing fitness (ln) (37 °C)
CUAAAGCAAUAUUACGGGCU	-4.47 ± 0.18	-2.59 ± 0.16
CUAAAGCAAUAUUACGGGGA	-3.4 ± 0.16	-1.96 ± 0.16
CUAAAGCAAUAUUACGUAGC	-3.73 ± 0.2	-2.94 ± 0.37
CUACAGCAAUAUUACGAACA	-2.94 ± 0.18	-2.49 ± 0.21
CUACAGCAAUAUUACGAAUG	-0.558 ± 0.059	-0.464 ± 0.075
CUACAGCAAUAUUACGACAA	-2.42 ± 0.2	-2.19 ± 0.21
CUACAGCAAUAUUACGACUG	-1.86 ± 0.087	-0.44 ± 0.1
CUACAGCAAUAUUACGAGAG	-2.79 ± 0.16	-2.21 ± 0.18
CUACAGCAAUAUUACGAUAC	-3.74 ± 0.19	-2.58 ± 0.18
CUACAGCAAUAUUACGAUUA	-2.88 ± 0.16	-1.5 ± 0.15
CUACAGCAAUAUUACGCUCA	-4.47 ± 0.42	-2.6 ± 0.39
CUACAGCAAUAUUACGCUGG	-3.11 ± 0.097	-2.66 ± 0.15
CUACAGCAAUAUUACGGAAA	-4.58 ± 0.46	-2.9 ± 0.33
CUACAGCAAUAUUACGGAGC	-3.83 ± 0.14	-3.14 ± 0.17
CUACAGCAAUAUUACGGAGU	-3.21 ± 0.13	-2.89 ± 0.16
CUACAGCAAUAUUACGGCAA	-3.24 ± 0.24	-2.79 ± 0.23
CUACAGCAAUAUUACGGCCG	-0.378 ± 0.091	-0.0396 ± 0.11
CUACAGCAAUAUUACGGCCU	-4.36 ± 0.33	-1.68 ± 0.21
CUACAGCAAUAUUACGGUAU	-2.43 ± 0.08	-1.31 ± 0.096
CUACAGCAAUAUUACGGUGA	-1.61 ± 0.081	-0.453 ± 0.092
CUACAGCAAUAUUACGUAAC	-3.34 ± 0.16	-2.03 ± 0.21
CUACAGCAAUAUUACGUAGU	-3.43 ± 0.14	-2.49 ± 0.2
CUACAGCAAUAUUACGUAUG	-2.21 ± 0.09	-1.35 ± 0.091
CUACAGCAAUAUUACGUGAU	-2.01 ± 0.063	-1.18 ± 0.085
CUAGAGCAAUAUUACGAACG	0.208 ± 0.12	0.617 ± 0.14

Sequence	self-splicing fitness (ln) (30 °C)	self-splicing fitness (ln) (37 °C)
CUAGAGCAAUAUUACGACUA	-1.97 ± 0.12	-1.26 ± 0.15
CUAGAGCAAUAUUACGCCCA	-3.13 ± 0.33	–
CUAGAGCAAUAUUACGCCGA	–	-2.06 ± 0.43
CUAGAGCAAUAUUACGCGCG	-0.479 ± 0.11	0.603 ± 0.16
CUAGAGCAAUAUUACGGAAC	-1.38 ± 0.17	–
CUAGAGCAAUAUUACGGAGU	-4.15 ± 0.33	-2.87 ± 0.43
CUAGAGCAAUAUUACGGAUU	–	-3.03 ± 0.43
CUAGAGCAAUAUUACGGGUA	-3.53 ± 0.36	-2.3 ± 0.36
CUAGAGCAAUAUUACGGUAG	-0.666 ± 0.12	-0.0273 ± 0.15
CUAGAGCAAUAUUACGUAGG	-1.04 ± 0.1	1 ± 0.14
CUAGAGCAAUAUUACGUGAU	-1.85 ± 0.09	-0.696 ± 0.1
CUAGAGCAAUAUUACGUGUG	-0.455 ± 0.055	0.162 ± 0.08
CUAGAGCAAUAUUACGUUAA	-3.73 ± 0.24	-1.89 ± 0.28
CUAUAGCAAUAUUACGACGU	-3.85 ± 0.37	-1.96 ± 0.3
CUAUAGCAAUAUUACGAGAC	-1.7 ± 0.37	–
CUAUAGCAAUAUUACGAUGA	-1.92 ± 0.16	-1.3 ± 0.17
CUAUAGCAAUAUUACGCACA	-2.35 ± 0.27	-1.89 ± 0.25
CUAUAGCAAUAUUACGCAUG	-2.02 ± 0.093	-0.942 ± 0.095
CUAUAGCAAUAUUACGCCAA	–	-1.68 ± 0.49
CUAUAGCAAUAUUACGCUCG	-1.74 ± 0.12	-0.741 ± 0.14
CUAUAGCAAUAUUACGCUGC	-3.11 ± 0.36	–
CUAUAGCAAUAUUACGCUUG	-2.62 ± 0.25	-2.14 ± 0.26
CUAUAGCAAUAUUACGGAAA	-2.82 ± 0.2	-2.06 ± 0.42
CUAUAGCAAUAUUACGGAUC	-3.75 ± 0.4	-2.31 ± 0.25
CUAUAGCAAUAUUACGGCGG	-0.513 ± 0.12	-0.641 ± 0.14

Source: the supplement of paper PMC7877785
